Assay results: patent US20240228572A1 (I2O THERAPEUTICS, published 2024)
*1 amine or outer side, *2 acyl side, *3 side chain or, on linkers, in order; H or OH if unused. Bridges are numbered along the chain shown (N, C = ends). Primed or numbered codes have the meaning given here. Where no end group is shown, it is not given here. Side-chain parts run from the residue outwards. [ ]: non-standard residue; d: D form. The star is where a group is joined. dpeg″ = spacer —[CO(CH2)O(CH2)2O(CH2)NH]—, O=C(COCCOCN[*:1])[*:2]; dpeg = —[CO(CH2)O(CH2)2O(CH2)NH]— spacer, O=C(COCCOCN[*:1])[*:2]; C20 diacid = O=C(O)CCCCCCCCCCCCCCCCCCC(=O)*; γGlu = O=C(O)[C@H](CCC(=O)[*:2])N[*:1]; Aib = CC(C)(N)C(=O)O

How the values were obtained:
[1] = biological target: human GLP-1 receptor (GLP-1R) (human, UniProt P43220 24-463); assay: cell-based or functional assay
Sequence of human GLP-1 receptor (GLP-1R) (P43220 24-463): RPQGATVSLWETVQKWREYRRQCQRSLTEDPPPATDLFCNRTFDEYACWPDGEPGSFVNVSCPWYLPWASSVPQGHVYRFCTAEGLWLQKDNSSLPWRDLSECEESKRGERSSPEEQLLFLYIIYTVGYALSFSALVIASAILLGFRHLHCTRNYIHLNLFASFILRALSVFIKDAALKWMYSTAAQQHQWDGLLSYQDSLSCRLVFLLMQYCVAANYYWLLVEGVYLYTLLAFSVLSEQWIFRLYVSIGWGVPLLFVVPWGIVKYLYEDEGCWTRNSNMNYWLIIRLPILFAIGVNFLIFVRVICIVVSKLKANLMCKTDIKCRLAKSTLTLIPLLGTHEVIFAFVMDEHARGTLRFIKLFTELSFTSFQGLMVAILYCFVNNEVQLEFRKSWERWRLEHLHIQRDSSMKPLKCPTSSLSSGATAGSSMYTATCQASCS

[2] = biological target: human Glucagon receptor (GCGR) (human, UniProt P47871 26-477); assay: cell-based or functional assay

YSHGTFTSDYSKYLDK([γGlu-γGlu-dpeg″-C20 diacid])KYAEKFVKWLESEPSSGAPPPS-OH (lactam 20-24) [Compound A28] was tested, and the “pEC50, cAMP accumulation” value [1] was < 9 pEC50 (-log M) and the “pEC50, cAMP accumulation” value [2] was 11.7 pEC50 (-log M).

YSHGTFTSDYSKYLD[Aib]KYAQK([γGlu-γGlu-dpeg″-C20 diacid])FVKWLEDEPSSGAPPPS-OH (lactam 24-28) [Compound A30] was tested, and the “pEC50, cAMP accumulation” value [1] was < 9 pEC50 (-log M) and the “pEC50, cAMP accumulation” value [2] was 12.5 pEC50 (-log M).

For YSHGTFTSDYSKYLDK([γGlu-γGlu-dpeg″-C20 diacid])KYAEKFVKWLEDEPSSGKPPPS-OH (lactam 20-24) [Compound A32], the “pEC50, cAMP accumulation” value [1] was < 9 pEC50 (-log M) and the “pEC50, cAMP accumulation” value [2] was 11.7 pEC50 (-log M).

Ac-YSHGTFTSDYSKYLDK([γGlu-γGlu-dpeg″-C20 diacid])KYAEKFVKWLEDEPSSGAPPPS-OH (lactam 20-24) [Compound A37] was tested, and the “pEC50, cAMP accumulation” value [1] was < 9 pEC50 (-log M) and the “pEC50, cAMP accumulation” value [2] was 11.5 pEC50 (-log M).

For YSHGTFTSDYSKYLDK([γGlu-γGlu-dpeg″-C20 diacid])KYAEKFVKWLEDEPSSGAPPPS-NH2 (lactam 20-24) [Compound A34], the “pEC50, cAMP accumulation” value [1] was < 9 pEC50 (-log M) and the “pEC50, cAMP accumulation” value [2] was 11.9 pEC50 (-log M).

With YSHGTFTSDYSKYLDK([γGlu-γGlu-dpeg″-C20 diacid])KYAEKFVKWLENEPSSGAPPPS-OH (lactam 20-24) [Compound A27] the “pEC50, cAMP accumulation” value [1] was < 9 pEC50 (-log M) and the “pEC50, cAMP accumulation” value [2] was 12 pEC50 (-log M).

For YSHGTFTSDYSKYLDK([γGlu-γGlu-dpeg″-C20 diacid])KYAEKFVKWLEEEPSSGAPPPS-OH (lactam 20-24) [Compound A25], the “pEC50, cAMP accumulation” value [1] was < 9 pEC50 (-log M) and the “pEC50, cAMP accumulation” value [2] was 11.9 pEC50 (-log M).

In the case of YSHGTFTSDYSKYLDK([γGlu-γGlu-dpeg″-C20 diacid])KYAEKFVKWLEDEPSSGSPPPS-OH (lactam 20-24) [Compound A33], the “pEC50, cAMP accumulation” value [1] is reported as < 9 pEC50 (-log M) and the “pEC50, cAMP accumulation” value [2] is reported as 11.9 pEC50 (-log M).

B1: Compound A36 (peptide)
peptide: Ac-YSHGTFTSDYSKYLD[Aib]KYAQK([γGlu-γGlu-dpeg″-C20 diacid])FVKWLEEEPSSGAPPPS-OH
modifications: lactam 24-28
SMILES: CC(=O)N[C@@H](Cc1ccc(O)cc1)C(=O)N[C@@H](CO)C(=O)N[C@@H](Cc1c[nH]cn1)C(=O)NCC(=O)N[C@H](C(=O)N[C@@H](Cc1ccccc1)C(=O)N[C@H](C(=O)N[C@@H](CO)C(=O)N[C@@H](CC(=O)O)C(=O)N[C@@H](Cc1ccc(O)cc1)C(=O)N[C@@H](CO)C(=O)N[C@@H](CCCCN)C(=O)N[C@@H](Cc1ccc(O)cc1)C(=O)N[C@@H](CC(C)C)C(=O)N[C@@H](CC(=O)O)C(=O)NC(C)(C)C(=O)N[C@@H](CCCCN)C(=O)N[C@@H](Cc1ccc(O)cc1)C(=O)N[C@@H](C)C(=O)N[C@@H](CCC(N)=O)C(=O)N[C@@H](CCCCNC(=O)CC[C@H](NC(=O)CC[C@H](NC(=O)COCCOCNC(=O)CCCCCCCCCCCCCCCCCCC(=O)O)C(=O)O)C(=O)O)C(=O)N[C@@H](Cc1ccccc1)C(=O)N[C@H](C(=O)N[C@H]1CCCCNC(=O)CC[C@@H](C(=O)N[C@@H](CCC(=O)O)C(=O)N2CCC[C@H]2C(=O)N[C@@H](CO)C(=O)N[C@@H](CO)C(=O)NCC(=O)N[C@@H](C)C(=O)N2CCC[C@H]2C(=O)N2CCC[C@H]2C(=O)N2CCC[C@H]2C(=O)N[C@@H](CO)C(=O)O)NC(=O)[C@H](CCC(=O)O)NC(=O)[C@H](CC(C)C)NC(=O)[C@H](Cc2c[nH]c3ccccc23)NC1=O)C(C)C)[C@@H](C)O)[C@@H](C)O
In the case of B1, the “pEC50, cAMP accumulation” value [1] is reported as < 9 pEC50 (-log M) and the “pEC50, cAMP accumulation” value [2] is reported as 10.8 pEC50 (-log M).

In the case of YSHGTFTSDYSKYLDK([γGlu-γGlu-dpeg″-C20 diacid])KYAEKFVKWLEKEPSSGAPPPS-OH (lactam 20-24) [Compound A26], the “pEC50, cAMP accumulation” value [1] is reported as < 9 pEC50 (-log M) and the “pEC50, cAMP accumulation” value [2] is reported as 11.1 pEC50 (-log M).

In the case of YSHGTFTSDYSKYLDK([γGlu-γGlu-dpeg″-C20 diacid])KYAEKFVKWLEDEPSSGEPPPS-OH (lactam 20-24) [Compound A31], the “pEC50, cAMP accumulation” value [1] is reported as < 9 pEC50 (-log M) and the “pEC50, cAMP accumulation” value [2] is reported as 11.9 pEC50 (-log M).

For YSHGTFTSDYSKYLDK([γGlu-γGlu-dpeg-C20 diacid])KYASEFV[Aib]WLESEPSSGAPPPS-OH [Compound A24], the “pEC50, cAMP accumulation” value [1] was < 9 pEC50 (-log M) and the “pEC50, cAMP accumulation” value [2] was 12.5 pEC50 (-log M).

YSHGTFTSDYSKYLDK([γGlu-γGlu-dpeg″-C20 diacid])KYAEKFVKWLEDE-NH2 (lactam 20-24) [Compound A35] was tested, and the “pEC50, cAMP accumulation” value [1] was < 9 pEC50 (-log M) and the “pEC50, cAMP accumulation” value [2] was 11.9 pEC50 (-log M).

B2: Compound A38 (peptide)
peptide: YSHGTFTSDYSKYLD[Aib]KYAEK([γGlu-γGlu-dpeg″-C20 diacid])FVKWLEEEPSSGAPPPS-OH
modifications: lactam 24-28; N-terminus assumed
SMILES: CC(C)C[C@@H]1NC(=O)[C@H](Cc2c[nH]c3ccccc23)NC(=O)[C@@H](NC(=O)[C@@H](NC(=O)[C@H](Cc2ccccc2)NC(=O)[C@H](CCCCNC(=O)CC[C@H](NC(=O)CC[C@H](NC(=O)COCCOCNC(=O)CCCCCCCCCCCCCCCCCCC(=O)O)C(=O)O)C(=O)O)NC(=O)[C@H](CCC(=O)O)NC(=O)[C@H](C)NC(=O)[C@H](Cc2ccc(O)cc2)NC(=O)[C@H](CCCCN)NC(=O)C(C)(C)NC(=O)[C@H](CC(=O)O)NC(=O)[C@H](CC(C)C)NC(=O)[C@H](Cc2ccc(O)cc2)NC(=O)[C@H](CCCCN)NC(=O)[C@H](CO)NC(=O)[C@H](Cc2ccc(O)cc2)NC(=O)[C@H](CC(=O)O)NC(=O)[C@H](CO)NC(=O)[C@@H](NC(=O)[C@H](Cc2ccccc2)NC(=O)[C@@H](NC(=O)CNC(=O)[C@H](Cc2c[nH]cn2)NC(=O)[C@H](CO)NC(=O)[C@@H](N)Cc2ccc(O)cc2)[C@@H](C)O)[C@@H](C)O)C(C)C)CCCCNC(=O)CC[C@@H](C(=O)N[C@@H](CCC(=O)O)C(=O)N2CCC[C@H]2C(=O)N[C@@H](CO)C(=O)N[C@@H](CO)C(=O)NCC(=O)N[C@@H](C)C(=O)N2CCC[C@H]2C(=O)N2CCC[C@H]2C(=O)N2CCC[C@H]2C(=O)N[C@@H](CO)C(=O)O)NC(=O)[C@H](CCC(=O)O)NC1=O
With B2 the “pEC50, cAMP accumulation” value [1] was < 9 pEC50 (-log M) and the “pEC50, cAMP accumulation” value [2] was 11.4 pEC50 (-log M).
